Test results published in patent publication US20070154905A1 (YEDA RESEARCH AND DEVELOPMENT, published 2007).

B1: MORT-1 protein (full-length) (other)
chain: VNQAPECRFGGGILGPLGKRRDLARASEPRTEGARRAGPQPRPLADPAMDPFLVLLHSVSSSLSSSELTELKFLCLGRVVKRKLERVQSGLDLFSMLLEQNDLEPGHTELLRELLASLRRHDLLRRVDDFEAGAAAGAAPGEEDLCAAFNVICDNVGKDWRRLARQLKVSDTKIDSIEDRYPRNLTERVRESLRIWKNTEKENATVAHLVGALRSCQMNLVADLVQEVQQARDLQNRSGAMSPMSWNSDASTSEAS
notes: Full-length construct; also called HF1; FADD
B4: MACHβ1 (ORF-B of MACH) (other)
chain: MDFSRNLYDIGEQLDSEDLASLKFLSLDYIPQRKQEPIKDALMLFQRLQEKRMLEESNLSFLKELLFRINRLDLLITYLNTRKEEMERELQTPGRAQISAYRVMLYQISEEVSRSELRSFKFLLQEEISKCKLDDDMNLLDIFIEMEKRVILGEGKLDILKRVCAQINKSLLKIINDYEEFSKERSSSLEGSPDEFSNDFGQSLPNEKQTSGILSDHQQSQFCKSTGESAQTSQH
notes: Gal4 fusion in two-hybrid tests; also called MACH B; MACH ORF-B
B5: intracellular domain of human p55 TNF receptor (residues 206-426) (receptor, UniProt P19438 235-455, looked up)
chain: RYQRWKSKLYSIVCGKSTPEKEGELEGTTTKPLAPNPSFSPTPGFTPTLGFSPVPSSTFTSSSTYTPGDCPNFAAPRREVAPPYQGADPILATALASDPIPNPLQKWEDSAHKPQSLDTDDPATLYAVVENVPPLRWKEFVRRLGLSDHEIDRLELQNGRCLREAQYSMLATWRRRTPRREATLELLGRVLRDMDLLGCLEDIEEALCGPAALPPAPSLLR
notes: range 206-426; Gal4 fusion in two-hybrid tests; also called p55-IC; p55 IC
B6: MACHα1 mutant in which the catalytic cysteine Cys360 is replaced by Ser (enzyme)
chain: MDFSRNLYDIGEQLDSEDLASLKFLSLDYIPQRKQEPIKDALMLFQRLQEKRMLEESNLSFLKELLFRINRLDLLITYLNTRKEEMERELQTPGRAQISAYRVMLYQISEEVSRSELRSFKFLLQEEISKCKLDDDMNLLDIFIEMEKRVILGEGKLDILKRVCAQINKSLLKIINDYEEFSKERSSSLEGSPDEFSNGEELCGVMTISDSPREQDSESQTLDKVYQMKSKPRGYCLIINNHNFAKAREKVPKLHSIRDRNGTHLDAGALTTTFEELHFEIKPHDDCTVEQIYEILKIYQLMDHSNMDCFICCILSHGDKGIIYGTDGQEAPIYELTSQFTGLKCPSLAGKPKVFFIQASQGDNYQKGIPVETDSEEQPYLEMDLSSPQTRYIPDEADFLLGMATVNNCVSYRNPAEGTWYIQSLCQSLRERCPRGDDILTILTEVNYEVSNKDDKKNMGKQMPQPTFTLRKKLVFPSD
notes: Gal4 fusion in two-hybrid tests; also called MACHα1 (C360S); MACHα (C360S)

Legend:
[1] = target: T1, MORT-1 fragment, amino acids 130-245 (C-terminal part with the death domain homology region) (human, UniProt Q13158 82-197); assay: yeast two-hybrid, β-galactosidase test (FIG. 1)
T1 construct: Gal4 fusion in two-hybrid tests; expressed untagged in HeLa cells for the cytotoxicity test; also called MORT-1 DD; MORT-1 dd
T1 sequence: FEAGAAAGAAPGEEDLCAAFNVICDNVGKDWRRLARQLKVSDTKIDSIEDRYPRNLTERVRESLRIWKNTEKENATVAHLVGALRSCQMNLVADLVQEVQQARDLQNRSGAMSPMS

[2] = target: T2, mouse Fas-IC with replacement mutation I225N (mouse, UniProt P25446 187-327); assay: yeast two-hybrid, β-galactosidase test (FIG. 1)
T2 construct: domain: intracellular domain; The text calls the change 'Ile to Leu' but labels it I225N; also called lpr^eg mutation
T2 sequence (looked up): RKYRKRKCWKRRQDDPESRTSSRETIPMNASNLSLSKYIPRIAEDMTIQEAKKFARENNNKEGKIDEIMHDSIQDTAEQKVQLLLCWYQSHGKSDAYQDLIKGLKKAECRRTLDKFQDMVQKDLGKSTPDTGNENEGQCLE

[3] = target: T3, mouse Fas-IC with replacement mutation I225A (mouse, UniProt P25446 187-327); assay: yeast two-hybrid, β-galactosidase test (FIG. 1)
T3 construct: domain: intracellular domain
T3 sequence (looked up): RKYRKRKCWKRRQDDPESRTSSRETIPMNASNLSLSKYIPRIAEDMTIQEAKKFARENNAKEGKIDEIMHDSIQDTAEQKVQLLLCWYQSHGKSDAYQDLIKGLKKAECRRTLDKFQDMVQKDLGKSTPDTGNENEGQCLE

[4] = target: B5; assay: yeast two-hybrid, β-galactosidase test (FIG. 1)
MACHβ1 (ORF-B of MACH) = target: B4; assay: yeast two-hybrid, β-galactosidase filter assay
Experimental: (§1) The yeast two-hybrid test was further applied to evaluate the specificity of binding of MACH to MORT-1, in particular, to define the region in MORT-1 to which MACH binds, as well as to determine which of the MACH ORFs interacts with MORT-1, the procedures being as set forth herein above in Examples 1 and 2. Briefly, various MORT-1 and MACH constructs were prepared for testing the interaction of the proteins encoded by the Gal4 DNA-binding domain and activation domain constructs within transfected SFY526 yeast cells as assessed by the β-galactosidase expression filter assay. The DNA-binding domain constructs were prepared in pGBT9 vectors and the activation domain constructs were prepared in pGAD-GM vectors. For the activation domain constructs, the full-length MACH cDNA was used (MACH), as was a construct encoding only the ORF-B (MACH B) region. Control activation domain constructs were those containing the full-length MORT-1 coding sequence (MORT 1, positive control) and those having no inserts, i.e., “empty” vectors (pGAD-GM). […] Control DNA-binding domain constructs, which were constructed to determine also the specificity of the MACH binding, included constructs encoding lamin (Lamin), residues 287-461 of the intracellular domain of the human p75 TNF-R (human p75 IC), cyclic D (cycD), SNF1, residues 206-426 of the intracellular domain of the human p55 TNF-R (human p55 IC), the ‘death domain’ region of the intracellular domain of the human Fas-R (human Fas DD), residues 216-277 of the intracellular domain of the human CD40 (human CD40 IC), vectors without insert or “empty” pGBT9 vectors (pGBT9, negative control), and a construct encoding the ORF-B region of MACH (MACH B). In the assay, the development of color was determined, where the greater the color development, the greater the interaction between the constructs encoded by the DNA-binding domain and activation domain; Color development was depicted by symbols, where “+++” and “+” indicate the development of a strong color within 30 and 90 min. of the assay, respectively, and “−−−” indicates the lack of development of color within 24 hrs. of the assay. In cases where interactions were not tested, no symbol was indicated.

[5] = target: the molecule itself; assay: yeast two-hybrid, β-galactosidase filter assay
Experimental: as §1

[6] = target: T4, 'empty' Gal4 DNA-binding-domain vector pGBT9 (UniProt P04386 1-147); assay: yeast two-hybrid, β-galactosidase test (FIG. 1); empty pGBT9 is named as a negative control in paragraph 206
T4 construct: Negative control

[7] = target: the molecule itself; assay: yeast two-hybrid, β-galactosidase test (FIG. 1)
[8] = target: B1; assay: yeast two-hybrid, β-galactosidase filter assay
Experimental: as §1

MACHα1 [9] = target: T5, MACHα1 (human, UniProt Q14790 1-479); assay: yeast two-hybrid
T5 construct: Gal4 fusion in two-hybrid tests; also called wild-type MACHα1
Experimental: (§2) In FIG. 5, there is shown the results of the interaction of MORT-1 and MACH within transfected yeast cells. Briefly, MORT-1 and MACHβ1 and their deletion constructs, as well as MACHα1, a MACHα1 mutant in which the catalytic cysteine Cys₃₆₀ is replaced by Ser (MACHα1 (C360S)) and the intracellular domain of human FAS-R (Fas-IC), were expressed within transfected SFY526 yeast in Gal4 DNA binding domain and activation domain constructs (pGBT9 and pGAD-GH). Their interaction was assessed by a β-galactosidase expression filter assay as described in Boldin et al (1995b). The results are presented in terms of the time required for the development of strong color. […] None of the inserts examined interacted with a number of tested negative controls, including the intracellular domains of human p55 TNF receptor, p75 TNF receptor and CD40, and lamin, cyclin D and ‘empty’ Gal4 vectors. MACHβ1 was cloned by two hybrid screening of a Gal4 AD-tagged human B cell library (Durfee et al, 1993) for proteins that bind to MORT-1, using the HF7c Yeast reporter strain. Except where otherwise indicated, all experimental procedures for the findings presented are as described above (see also Boldin et al, 1995). […] MACHβ1 also self-associated in the transfected yeast. […] Expression of MACHβ1 molecules in mammalian cells yielded a 34 kDa protein that bound to MORT-1 molecules co-expressed with it. It was also able to bind to a GST-MORT-1 fusion protein in vitro.

[10] = target: B6; assay: yeast two-hybrid
Experimental: as §2

[11] = target: B5; assay: yeast two-hybrid, β-gal filter assay (FIG. 5)
MACHα1 [12] = target: T5, MACHα1; assay: yeast two-hybrid, β-gal filter assay (FIG. 5)
[13] = target: B6; assay: yeast two-hybrid, β-gal filter assay (FIG. 5)
yeast two-hybrid = target: the molecule itself; assay: yeast two-hybrid
Experimental: as §2

T4 sequence (P04386 1-147 limits assumed): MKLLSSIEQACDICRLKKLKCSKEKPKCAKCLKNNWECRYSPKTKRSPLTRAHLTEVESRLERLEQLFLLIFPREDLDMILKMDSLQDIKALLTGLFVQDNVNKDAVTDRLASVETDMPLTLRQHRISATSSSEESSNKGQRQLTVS

B1: no binding [1]; no binding [2]; no binding [3]. For the same binder, the binding result [4] was “no binding”, the “time to development of strong color (beta-galactosidase filter assay, yeast two-hybrid)” value (from here on “time to development of strong color”) (MACHβ1 (ORF-B of MACH)) was 30 to 90 min and the “time to development of strong color” value [5] was ≤ 30 min. B1: no binding [6].

B2: MORT-1 fragment, amino acids 1-117 (N-terminal part) (other)
chain: VNQAPECRFGGGILGPLGKRRDLARASEPRTEGARRAGPQPRPLADPAMDPFLVLLHSVSSSLSSSELTELKFLCLGRVVKRKLERVQSGLDLFSMLLEQNDLEPGHTELLRELLAS
notes: Gal4 fusion in two-hybrid tests; also called MORT-1 head; MORT 'head'
B2: no binding [7].

B3: MACH (construct with the full-length MACH cDNA) (other)
chain: MDFSRNLYDIGEQLDSEDLASLKFLSLDYIPQRKQEPIKDALMLFQRLQEKRMLEESNLSFLKELLFRINRLDLLITYLNTRKEEMERELQTPGRAQISAYRVMLYQISEEVSRSELRSFKFLLQEEISKCKLDDDMNLLDIFIEMEKRVILGEGKLDILKRVCAQINKSLLKIINDYEEFSKERSSSLEGSPDEFSNDFGQSLPNEKQTSGILSDHQQSQFCKSTGESAQTSQH
notes: also called MORT-2
B3 was tested, and the “time to development of strong color” value [8] was ≤ 30 min.

B4: binds (MACHα1 [9]); binds [10]; no binding [11]. The “time to development of strong color” value [8] was ≤ 30 min and the “time to development of strong color” value [5] was 30 to 90 min.

B5: no binding (MACHα1 [12]); no binding [13].

B6: binds (yeast two-hybrid).
